Measurements published in article PMC9410896.

T1: MucR1 (Sinorhizobium fredii CCBAU45436, UniProt C3M8K5 1-143, A8T;V56I)
T1 sequence: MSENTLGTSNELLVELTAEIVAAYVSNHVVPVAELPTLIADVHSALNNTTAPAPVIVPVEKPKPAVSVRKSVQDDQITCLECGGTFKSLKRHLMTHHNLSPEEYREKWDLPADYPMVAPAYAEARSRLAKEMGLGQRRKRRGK

B1: motif_b8 (dsDNA)
DNA 1: CAATTGTATTGATATATCCAT
DNA 2: ATGGATATATCAATACAATTG
B2: motif_b1(2) (dsDNA)
DNA 1: GGTATTTTTTGGGGAATTGAAT
DNA 2: ATTCAATTCCCCAAAAAATACC
B3: motif_b4 (dsDNA)
DNA 1: TTATATTGACCGACTGAGATA
DNA 2: TATCTCAGTCGGTCAATATAA
B4: motif_b5 (dsDNA)
DNA 1: TTTAAATCACCTATTTATATT
DNA 2: AATATAAATAGGTGATTTAAA
B5: motif_b6 (dsDNA)
DNA 1: ATAGACAACGCAAAGTATTGA
DNA 2: TCAATACTTTGCGTTGTCTAT
B6: spacer S2 (primer name spacer1) (dsDNA)
DNA 1: GCCCAGTTCTACTCCATTTTTAGTAGAAA
DNA 2: TTTCTACTAAAAATGGAGTAGAACTGGGC
B7: spacer S3 (dsDNA)
DNA 1: AATTATCGGGATCGGGGGATAATGACA
DNA 2: TGTCATTATCCCCCGATCCCGATAATT
B8: motif_b7 (dsDNA)
DNA 1: ATTGATATATCCATAGACAAC
DNA 2: GTTGTCTATGGATATATCAAT
B9: motif_b3 (dsDNA)
DNA 1: ATGCTTCCAAGTTGTTTAGGT
DNA 2: ACCTAAACAACTTGGAAGCAT
B10: motif_a1 (dsDNA)
DNA 1: GTTGTTTAGGTATTTTTTGGGGAATTGAAT
DNA 2: ATTCAATTCCCCAAAAAATACCTAAACAAC
B11: spacer S4 (dsDNA)
DNA 1: AAACATTGACTGTATATAATTTTA
DNA 2: TAAAATTATATACAGTCAATGTTT
B12: spacer S1 (primer name spacer2) (dsDNA)
DNA 1: GCCCAGTTCTACTCCATTTT
DNA 2: AAAATGGAGTAGAACTGGGC

Biological target: T1, MucR1
Test: EMSA

Binding result, binds:
B1

Biological target: T1, MucR1
Test: EMSA
Remark: another data set of the same source

Binding result, binds:
B2, B3, B4, B5, B6, B7, B8, B9, B10, B11, B12
